Positions count from the first letter of the chain named.
Experiments:
Test in all cases: Alanine scanning / mutagenesis epitope mapping of C5aR1
Assay type in all cases: binding
[1] = target: T1, C5aR1 mutants (N-terminus, ECL1, ECL2, ECL3) (Homo sapiens, UniProt P21730, G12E/K279N); conditions: G12E (as in cyno and rhesus)
T1 sequence (P21730 with tags, fused parts or gaps G12E/K279N): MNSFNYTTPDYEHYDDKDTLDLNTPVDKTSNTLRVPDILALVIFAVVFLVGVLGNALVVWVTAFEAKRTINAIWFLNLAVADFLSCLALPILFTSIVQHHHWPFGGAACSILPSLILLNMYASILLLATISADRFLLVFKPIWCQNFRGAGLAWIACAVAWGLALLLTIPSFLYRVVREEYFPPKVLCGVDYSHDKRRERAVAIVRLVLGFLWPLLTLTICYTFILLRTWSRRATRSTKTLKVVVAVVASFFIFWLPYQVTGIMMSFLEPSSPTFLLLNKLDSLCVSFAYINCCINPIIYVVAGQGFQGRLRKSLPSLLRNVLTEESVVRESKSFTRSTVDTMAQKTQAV
Source text: (§1) FIG. 5A is a diagram showing the results of alanine scanning mutations of site I interaction with mab 583. The N-terminal amino acid sequence of C5aR1 is listed across the top of the figure. Glycosylation sites are indicated by rectangle boxes. The only natural glycosylation site is at position N5. The other sites were introduced by mutagenesis. Mutations that abolished clone 583 binding are circled. The sulfated tyrosines at positions 11 and 14 are marked with a star sign. FIG. 5B is a diagram showing results of alanine scanning mutations of site I interaction with mab 66. Mutations that abolished clone 66 binding are circled. The sulfated tyrosines at positions 11 and 14 are marked with a star sign.
(§2) Ala substitutions of T8 & D10 moderately reduces its affinity while Y11 & D15 abolishes mAb binding. […] N-glycosylation of at N17 or D17P also abolishes mAb binding. N5 glycan is tolerated but a tandem glycosylation (N5 & N17) is not tolerated. mAb core epitopes are T8-G12 but nature of AA present in D15-D18 influence its binding. […] The core epitope appears to be located near T8-G12, with additional contributions from D15-D18.
(§3) Clone 66 was previously characterized as a site I binder and its binding is dependent on tyrosine sulfation at positions 11Y and/or 14Y. […] It should be noted that the only the only non-human species to retain clone 66 binding was baboon, which is the only NHP that retains the DYGHY motif.
(§4) However, it was unknown if additional contacts were made with ECL1 or ECL3. […] The data is highlighted in FIG. 5C-5E.
(§5) The core epitope of clone 11 is from E180-P183; the core epitope of clone 329 is from E180-P184; and the core epitope of clone 336 is from R178-P183. […] The data for clones 11, 329, and 336 is highlighted in FIG. 5F.

[2] = target: T2, C5aR1 mutants (N-terminus, ECL1, ECL2, ECL3) (Homo sapiens, UniProt P21730, D10A/K279N); conditions: D10A
T2 sequence (P21730 with tags, fused parts or gaps D10A/K279N): T1 sequence (P21730 with tags, fused parts or gaps G12E/K279N) with D10A, E12G
Source text: as §1, §2, §3, §4, §5

[3] = target: T3, C5aR1 mutants (N-terminus, ECL1, ECL2, ECL3) (Homo sapiens, UniProt P21730, K279N/T8A); conditions: T8A
T3 sequence (P21730 with tags, fused parts or gaps T8A/K279N): T1 sequence (P21730 with tags, fused parts or gaps G12E/K279N) with T8A, E12G
Source text: as §1, §2, §3, §4, §5

[4] = target: T4, C5aR1 mutants (N-terminus, ECL1, ECL2, ECL3) (Homo sapiens, UniProt P21730, K279N/Y11A); conditions: Y11A
T4 sequence (P21730 with tags, fused parts or gaps Y11A/K279N): T1 sequence (P21730 with tags, fused parts or gaps G12E/K279N) with Y11A, E12G
Source text: as §1, §2, §3, §4, §5

[5] = target: T5, C5aR1 mutants (N-terminus, ECL1, ECL2, ECL3) (Homo sapiens, UniProt P21730, E179A/K279N); conditions: E179A
T5 sequence (P21730 with tags, fused parts or gaps E179A/K279N): T1 sequence (P21730 with tags, fused parts or gaps G12E/K279N) with E12G, E179A
Source text: as §1, §2, §3, §4, §5

B1: clone 66: anti-C5aR1 Site I antibody; VH SEQ ID NO: 483, VL SEQ ID NO: 543 (antibody, V domains shown)
VH: QVQLQQSDAELVKPGASVKISCKASGYTFIDHAIHWVKQRPEQGLEWIGYISPGNGEIKYNEKFKAKATLTADKSSSAAYMQLNSLTSADSAVYFCKRALFYYTGKYQPMDYWGQGTTVTDSS
VL: DIVMTQSQKFMSTTAGDRVSITCKASQNVGSAVVWYQQKPGRSPKLLIYSSSIRYTGVPDRFTGSGSGTDFTLTINSVQSEDLADYFCQQYNSFPLTFGAGTKLEIK
[1]
  binding to C5aR1 mutant: abolishes binding

B2: clone 583: anti-C5aR1 Site I antibody; VH SEQ ID NO: 536, VL SEQ ID NO: 595 (antibody, V domains shown)
VH: EVQLVESGGGLVKPGGSLKLSCAASGFTFNAYAMSWVRQTPEKRLEWVASISTGGNTYCPDSVKDRFTVSRDNVRNILYLQMSSLRSEDTAMYYCTRGYQRFSGFAYWGQGTLVTVS
VL: DVVMTQTPLSPPVSLGYQASISCRSSQSLVHSNGNTYLNWYLQKPGQSPKLLIYKVSNRLSGVPDRFSGSGSGTDFTLKISRVETEDLGVYFCSQSTHVPYTFGGGTKLEIK
[2]
  binding to C5aR1 mutant: moderately reduce binding
[3]
  binding to C5aR1 mutant: moderately reduce binding
[4]
  binding to C5aR1 mutant: abolishes binding

B3: clone 329: anti-C5aR1 Site II antibody; VH SEQ ID NO: 492, VL SEQ ID NO: 552 (antibody, V domains shown)
VH: QVQLQQSGAELTKPGASVKLSCKASGYTFTNYWMHWVKQRPGQGLEWIGYLNPSSGYTKYNQKFKDKATLTADKSSSTAYMQLNSLTYEDSAVYYCTRSGGDNYGNPYYFDRWGQGTTVTVSS
VL: DVVMTQTPLSLTVSLGDQASISCRSSQSLVHSNGNTYLHWYLQKPGQSPKFLIYKVSNRFSGVPDRFSGSGSGTDFRLKISRVEAEDLGVYFCSQSTLVPLTFGAGTKLEIK
[5]
  binding to C5aR1 mutant: did not reduce antibody affinity

From patent US12187807B2, “Antibody molecules to C5AR1 and uses thereof” (Visterra, Inc., priority 2020, dated 2025)
